Reference: US20250339532A1 (FATE THERAPEUTICS, published 2025)

Target: CD38 (UniProt P28907 1-300, limits assumed)
Assay: cell-based or functional assay

- fold reduction of CD38+ T cell counts in co-cultures with daratumumab against the control condition: ~15 fold
- fold reduction of CD38+ pbNK cell counts in co-cultures with daratumumab against the control condition: ~21 fold
B1: daratumumab (antibody, V domains shown)
VH: EVQLLESGGGLVQPGGSLRLSCAVSGFTFNSFAMSWVRQAPGKGLEWVSAISGSGGGTYYADSVKGRFTISRDNSKNTLYLQMNSLRAEDTAVYFCAKDKILWFGEPVFDYWGQGTLVTVSS
VL: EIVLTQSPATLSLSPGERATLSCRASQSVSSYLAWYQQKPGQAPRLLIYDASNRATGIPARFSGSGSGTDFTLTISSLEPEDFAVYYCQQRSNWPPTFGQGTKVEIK
